Laboratory results taken from patent publication US20220048996A1 (F STAR BETA, published 2022).

How the values were obtained:
[1] = biological target: T1, hFcγR3a (R&D Systems 4325-FC-050/CF) (human, UniProt P08637 17-208); assay: SPR, antibody 100 nM on OX40-his chip co-injected with FcγR 500 nM
T1 construct: Bought; In the ADCC bioassay FcγRIIIa stood on engineered Jurkat cells; also called FcγRIIIa
Method: (§1) Binding was tested on a Biacore 3000 instrument (GE Healthcare). Human OX40 (BPS Bioscience cat no 71310) and human CD137 (produced in house) biotinylated his-tagged antigens were coated onto an SA chip (GE Healthcare cat no BR100398) at 2 μM concentration. Human OX40 and human CD137 were coated on separate flow cells, while another flow cell was left blank for background subtraction. Regeneration conditions were determined to be 12 μl aqueous 10 mM glycine-HCl at pH2.0 at 20 μl/min flow rate. Antibodies (see Table 8) and human FcγRs (see Table 8) were diluted to 100 nM (antibodies) or 500 nM (human FcγRs) in HBS-P (0.01 M HEPES pH 7.4, 0.15 M NaCl, 0.005% v/v Surfactant P20, GE Healthcare, BR-1003-68) and co-injected at 20 μl/min flow rate and the dissociation was followed for 5 min.
(§2) Data analysis was performed with BiaEvaluation software version 3.2 RC1 by referencing against the blank flow cell and aligning the curves after the association of the antibody. Values for binding response at the end of the association phase were generated by subtracting the […] to normalize the effect of the antibody binding to the OX40 and CD137 receptors.

[2] = biological target: T2, hFcγR2a (R&D Systems 1330-CD-050/CF) (human, UniProt P12318 36-218, limits assumed); assay: as above
T2 construct: Bought; also called FcγRIIa
T2 sequence (looked up): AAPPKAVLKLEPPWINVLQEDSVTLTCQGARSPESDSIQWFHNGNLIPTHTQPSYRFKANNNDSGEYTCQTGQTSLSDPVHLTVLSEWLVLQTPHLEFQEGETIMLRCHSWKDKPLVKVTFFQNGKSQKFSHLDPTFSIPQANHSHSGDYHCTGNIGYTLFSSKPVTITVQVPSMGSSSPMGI
Method: as §1, §2

[3] = biological target: T3, hFcγR2b (R&D Systems 1460-CD-050/CF) (human, UniProt P31994 46-217, limits assumed); assay: as above
T3 construct: Bought; also called FcγRIIb
T3 sequence (looked up): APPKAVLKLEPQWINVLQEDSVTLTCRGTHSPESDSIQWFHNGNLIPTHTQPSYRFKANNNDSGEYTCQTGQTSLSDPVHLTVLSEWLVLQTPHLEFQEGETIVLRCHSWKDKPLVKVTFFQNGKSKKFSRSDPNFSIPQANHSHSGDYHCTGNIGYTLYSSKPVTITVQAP
Method: as §1, §2

[4] = biological target: T4, hFcγR1 (R&D Systems 1257-FC-050/CF) (human, UniProt P12314 16-288); assay: as above
T4 construct: Bought; also called FcγRI
T4 sequence (P12314 16-288 limits assumed): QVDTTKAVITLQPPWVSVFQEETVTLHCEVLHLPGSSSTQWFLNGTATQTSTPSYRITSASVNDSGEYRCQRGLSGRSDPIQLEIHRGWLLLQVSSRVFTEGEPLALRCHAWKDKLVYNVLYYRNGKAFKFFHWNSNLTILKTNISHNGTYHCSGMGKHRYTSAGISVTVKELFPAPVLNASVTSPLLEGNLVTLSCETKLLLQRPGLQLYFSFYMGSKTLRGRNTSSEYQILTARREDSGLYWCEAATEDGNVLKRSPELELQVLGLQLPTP
Method: as §1, §2

[5] = biological target: T5, cOX40-mFc (cynomolgus); assay: SPR, antibody captured via anti-human Fab, dimeric antigen flowed, 1:1 fit
T5 construct: Dimeric; also called cyno OX40-mFc
T5 chain: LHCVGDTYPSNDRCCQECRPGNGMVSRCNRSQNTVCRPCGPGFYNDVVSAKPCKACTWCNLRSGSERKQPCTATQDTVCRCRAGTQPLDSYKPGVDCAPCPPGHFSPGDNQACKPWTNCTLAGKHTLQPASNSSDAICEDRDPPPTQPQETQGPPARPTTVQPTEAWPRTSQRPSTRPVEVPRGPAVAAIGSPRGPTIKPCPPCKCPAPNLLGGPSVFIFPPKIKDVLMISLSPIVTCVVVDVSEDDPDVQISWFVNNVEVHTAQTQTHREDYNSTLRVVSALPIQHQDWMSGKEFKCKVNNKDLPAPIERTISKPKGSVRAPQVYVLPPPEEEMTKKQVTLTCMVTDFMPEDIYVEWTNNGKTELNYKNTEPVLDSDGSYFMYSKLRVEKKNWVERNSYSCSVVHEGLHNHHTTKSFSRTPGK
Method: (§3) For OX40 affinity determination a Biacore CM5 chip was coated with anti-human Fab using a Human Fab Capture Kit (GE Healthcare 28958325) according to manufacturer's conditions, to a surface density of approximately 8000 RU. […] The association time was 2 min and the dissociation time was 8 min. Running buffer was HBS-EP. Flow cells were regenerated by injecting glycine-HCl at pH 2.1 at a flow rate of 30 μl/min for 30 seconds.
(§4) The binding kinetics were fit with a 1:1 Langmuir model to generate binding association (kₐ) and dissociation (kd) rates. Equilibrium binding constants (KD) were calculated by dividing the dissociation rate by the association rate for each sample. Data analysis was performed with BiaEvaluation software version 3.2.

[6] = biological target: T6, hOX40-mFc (human); assay: as above
T6 construct: Dimeric; also called human OX40-mFc
T6 chain: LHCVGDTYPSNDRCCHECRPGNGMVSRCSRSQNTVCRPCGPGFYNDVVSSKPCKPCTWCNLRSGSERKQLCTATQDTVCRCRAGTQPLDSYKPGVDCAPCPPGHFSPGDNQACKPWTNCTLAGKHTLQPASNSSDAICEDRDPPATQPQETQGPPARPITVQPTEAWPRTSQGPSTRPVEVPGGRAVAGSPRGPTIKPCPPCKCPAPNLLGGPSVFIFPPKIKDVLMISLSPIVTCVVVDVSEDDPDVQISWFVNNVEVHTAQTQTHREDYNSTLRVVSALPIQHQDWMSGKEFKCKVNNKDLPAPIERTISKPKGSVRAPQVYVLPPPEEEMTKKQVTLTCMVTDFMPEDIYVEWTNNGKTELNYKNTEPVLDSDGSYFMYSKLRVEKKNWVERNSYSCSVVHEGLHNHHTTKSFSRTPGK
Method: as §3, §4

T1 sequence (P08637 17-208 limits assumed): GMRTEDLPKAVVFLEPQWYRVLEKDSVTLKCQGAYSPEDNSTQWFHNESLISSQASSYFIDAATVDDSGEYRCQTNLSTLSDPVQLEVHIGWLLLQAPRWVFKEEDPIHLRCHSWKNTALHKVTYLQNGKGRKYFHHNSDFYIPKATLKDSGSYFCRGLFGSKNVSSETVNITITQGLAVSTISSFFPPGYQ

B1: FS20-22-49AA/FS30-10-16 (bispecific antibody, human IgG1, kappa, L234A L235A)
heavy: EVQLLESGGGLVQPGGSLRLSCAASGFTFSSYDMSWVRQAPGKGLEWVSDIDPTGSKTDYADSVKGRFTISRDNSKNTLYLQMNSLRAEDTAVYYCARDLLVYGFDYWGQGTLVTVSSASTKGPSVFPLAPSSKSTSGGTAALGCLVKDYFPEPVTVSWNSGALTSGVHTFPAVLQSSGLYSLSSVVTVPSSSLGTQTYICNVNHKPSNTKVDKKVEPKSCDKTHTCPPCPAPEAAGGPSVFLFPPKPKDTLMISRTPEVTCVVVDVSHEDPEVKFNWYVDGVEVHNAKTKPREEQYNSTYRVVSVLTVLHQDWLNGKEYKCKVSNKALPAPIEKTISKAKGQPREPQVYTLPPSRDEYWDQEVSLTCLVKGFYPSDIAVEWESNGDEQFAYKTTPPVLDSDGSFFLYSKLTVDQYRWNPADYFSCSVMHEALHNHYTQKSLSLSPG
light: EIVLTQSPGTLSLSPGERATLSCRASQSVSSSYLAWYQQKPGQAPRLLIYGASSRATGIPDRFSGSGSGTDFTLTISRLEPEDFAVYYCQQSYSYPVTFGQGTKVEIKRTVAAPSVFIFPPSDEQLKSGTASVVCLLNNFYPREAKVQWKVDNALQSGNSQESVTEQDSKDSTYSLSSTLTLSKADYEKHKVYACEVTHQGLSSPVTKSFNRGEC
notes: IgG1 with LALA; also called OX40/CD137 mAb^2; copies: 2 + 2
[1]
  binding response at end of association phase of FcγR: 31.4 RU
[2]
  binding response at end of association phase of FcγR: 37.4 RU
[3]
  binding response at end of association phase of FcγR: 34.3 RU
[4]
  binding response at end of association phase of FcγR: 238 RU
[5]
  Kd: 0.861 nM
[6]
  Kd: 0.214 nM
